Test results reported in PMC7470827.

Experiments:
[1] = target: Untagged Tlg2 SNARE motif (residues 258-327) (Chaetomium thermophilum); assay: AUC; sedimentation velocity, 42,000 rpm, 20°C, gel filtration buffer; MBP-Tlg2(258-327) 9 µM, Tlg2(79-200) 72 µM, Tlg2(258-327) 168 µM; c(S) by SEDFIT
[2] = target: MBP-tagged Tlg2 SNARE motif (residues 258-327) (Chaetomium thermophilum); assay: as above
Syntaxin-16 N-peptide = Syntaxin-16 N-peptide (UniProt Q8BVI5); conditions: cited from earlier work
Sequence of UniProt Q8BVI5 (Q8BVI5 1-27): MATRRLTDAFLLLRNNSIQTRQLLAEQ

Untagged Tlg2 SNARE motif (residues 258-327) (domain or fragment)
stoichiometry N [1]: 4

MBP-tagged Tlg2 SNARE motif (residues 258-327) (domain or fragment)
stoichiometry N [2]: 4

Vps45 (from UniProt P97390)
Kd (Syntaxin-16 N-peptide): 27 nM
